Test results published in US11491212.

Chain of Factor X (FX), P00742 (P00742 whole entry, looked up): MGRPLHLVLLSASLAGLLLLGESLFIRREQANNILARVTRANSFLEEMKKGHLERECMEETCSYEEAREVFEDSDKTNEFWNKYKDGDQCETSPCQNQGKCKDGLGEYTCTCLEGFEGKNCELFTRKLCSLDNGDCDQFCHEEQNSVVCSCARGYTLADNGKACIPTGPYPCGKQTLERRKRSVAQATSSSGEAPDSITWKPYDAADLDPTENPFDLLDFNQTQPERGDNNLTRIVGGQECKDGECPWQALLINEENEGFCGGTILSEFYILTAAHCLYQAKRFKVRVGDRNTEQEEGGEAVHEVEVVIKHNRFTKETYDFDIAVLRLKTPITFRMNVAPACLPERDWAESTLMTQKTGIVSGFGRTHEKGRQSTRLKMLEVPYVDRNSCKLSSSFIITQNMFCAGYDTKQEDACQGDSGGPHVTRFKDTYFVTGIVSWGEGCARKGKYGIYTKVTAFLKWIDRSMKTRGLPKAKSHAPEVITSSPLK
Chain of Factor X, P00742 (P00742 whole entry, looked up): as above

| Protein | % of WT kcat/KM (Factor X, P00742) | kcat/KM (Factor X, P00742) | % of WT kcat/KM (against Catalyst Biosciences WT FIXa) (Factor X (FX), P00742) | kcat/KM for activation of FX by FIXa in the Xase complex (FVIIIa, PC/PS vesicles, Ca2+), fluorogenic Spectrafluor FXa read-out (Factor X (FX), P00742) |
| --- | --- | --- | --- | --- |
| FIXa K247N/N249S/R318Y/R338E/T343R/E410N (protein) chain 1: not shown chain 2: not shown | 687% | 3.2e+08 M⁻¹ s⁻¹ |  |  |
| FIXa Y155F/K247N/N249S/R318Y/T343R/R403E/E410N (protein) chain 1: not shown chain 2: not shown | 350% | 1.6e+08 M⁻¹ s⁻¹ |  |  |
| FIXa K247N/N249S/R318Y/T343R/R403E/E410N (protein) chain 1: not shown chain 2: not shown | 279% | 1.3e+08 M⁻¹ s⁻¹ |  |  |
| FIXa Y155F/K247N/N249S/R338E/E410N (protein) chain 1: not shown chain 2: not shown | 1009% | 4.7e+08 M⁻¹ s⁻¹ |  |  |
| FIXa Y155F/K247N/N249S/R318Y/T343R/R403E (protein) chain 1: not shown chain 2: not shown | 276% | 1.3e+08 M⁻¹ s⁻¹ |  |  |
| FIXa K247N/N249S/R318Y/T343R/R403E (protein) chain 1: not shown chain 2: not shown | 84% | 3.9e+07 M⁻¹ s⁻¹ |  |  |
| FIXa-Y155F/I251S/R318Y/R338E/R403E/E410N (protein) chain 1: not shown chain 2: not shown |  |  | 363% | 1.7e+08 M⁻¹ s⁻¹ |
| FIXa-D104N/K106S/I251S/R318Y/R338E/E410N (protein) chain 1: not shown chain 2: not shown |  |  | 291% | 1.3e+08 M⁻¹ s⁻¹ |
| FIXa-K247N/N249S/R318Y/R338E/R403E/E410N (protein) chain 1: not shown chain 2: not shown |  |  | 331% | 1.5e+08 M⁻¹ s⁻¹ |
| FIXa-D104N/K106S/K247N/N249S/R318Y/R338E/R403E/E410N (protein) chain 1: not shown chain 2: not shown |  |  | 192% | 8.8e+07 M⁻¹ s⁻¹ |
| FIXa-K247N/N249S/R318Y/R338E/E410N (protein) chain 1: not shown chain 2: not shown |  |  | 501% | 2.3e+08 M⁻¹ s⁻¹ |
| FIXa-R318Y/R338E/E410S (protein) chain 1: not shown chain 2: not shown |  |  | 708% | 3.3e+08 M⁻¹ s⁻¹ |
| FIXa-D104N/K106S/Y155F/K228N/K247N/N249S (protein) chain 1: not shown chain 2: not shown |  |  | 137% | 6.3e+07 M⁻¹ s⁻¹ |
